Consider two molecules from paper PMC11323535, “Neisserial adhesin A (NadA) binds human Siglec-5 and Siglec-14 with high affinity and promotes bacterial adhesion/invasion” (mBio, 2024).

The target in the test is T1, recombinant soluble NadA (NadA_(24–350)) (Neisseria meningitidis strain 2996, UniProt Q8KH85 24-350).
T1 construct: Neisserial adhesin A (NadA) variant 3, N. meningitidis strain 2996, residues 24-350: ectodomain without the leader peptide and the anchor domain; Heated at 80°C for 2 h (thermally stressed, monomeric) in one SPR experiment; also called rNadA; NadA ectodomain
As to the kind of experiment: peptide or protein array; recombinant soluble human and mouse proteins spotted; rNadA_(24–350) 1 µM in Nap-PBS overlaid for 1 h; rabbit anti-NadA serum and AlexaFluor 647 anti-rabbit IgG; MFI ≥ 30,000 high reactivity, MFI < 5,000 no reactivity. The settings on record: both partners purified.

B1: Chromosome two open reading frame 66 (protein microarray) (natural protein, human, UniProt Q6UXQ4 39-117, looked up)
chain: ATVRNEDKWKPLNNPRNRDLFFRRLQAYFKGRGLDLGTFPNPFPTNENPRPLSFQSELTASASADYEEQKNSFHNYLKG
notes: human C2orf66, recombinant soluble protein; also called C2orf66; source: recombinant soluble protein produced at GNF, spotted on the microarray
For B1, the binding result was “binds”.

B2: Stathmin 2 (protein microarray) (natural protein, human, UniProt Q93045-2 1-187, looked up)
chain: MAKTAMAYKEKMKELSMLSLICSCFYPEPRNINIYTYDDMEVKQINKRASGQAFELILKPPSPISEAPRTLASPKKKDLSLEEIQKKLEAAEERRKSQEAQVLKQLAEKREHEREVLQKALEENNNFSKMAEEKLILKMEQIKENREANLAAIIERLQEKLVKFISSELKESIESQFLELQREGEKQ
notes: human stathmin 2, recombinant soluble protein; also called STMN2; source: recombinant soluble protein produced at GNF, spotted on the microarray
As for B2, the binding result is on record as “binds”.
